Source: PMC3469418 (2012)
Where two headings read alike, the source gives them in different places.

B1: GST-CortoCD (Corto chromodomain fused to GST) (domain or fragment)
chain: TASSNSNAAPAPSPQKDYSIPLHVDCSVEYELPNQPKPPAGQRVEPLLMIHPCYFRKMESQRRSPFVNNMHATARAV
B2: GST-HP1CD (HP1 chromodomain fused to GST) (domain or fragment)
chain: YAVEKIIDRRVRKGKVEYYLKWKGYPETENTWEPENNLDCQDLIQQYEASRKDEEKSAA

Columns and labels:
Experiment in all cases: SPR
[1] = molecular target: RPL12 peptide dimethylated on lysine 3 (D. melanogaster, UniProt Q9W1B9, dimethyl-lysine at 3 (K3me2))
RPL12 unmodified peptide [2] = molecular target: T1, RPL12 unmodified peptide (D. melanogaster, UniProt Q9W1B9)
[3] = molecular target: T2, RPL12 peptide trimethylated on lysine 3 (D. melanogaster, UniProt Q9W1B9, trimethyl-lysine at 3 (K3me3))
RPL12 unmodified peptide [4] = molecular target: T1, RPL12 unmodified peptide; remark: listed apart in the source
[5] = molecular target: T2, RPL12 peptide trimethylated on lysine 3; remark: listed apart in the source

Binder | Kd [1] | koff [1] | Kd (RPL12 unmodified peptide [2]) | koff (RPL12 unmodified peptide [2]) | koff [3] | Kd (RPL12 unmodified peptide [4]) | Kd [5]
B1 | 238 µM | 0.00099 s⁻¹ | 624 µM | 0.00076 s⁻¹ | 0.00082 s⁻¹ | – | –
B2 | – | – | – | – | – | > 1000 µM | 292 µM
